Data as given in patent publication US20260069689A1 (Regeneron, published 2026).
Numbering of substitutions follows the chain as printed. Several values for one entry are separate records, joined by “and”; a condition that tells them apart may be missing. Equal values may be shown once.

B1: mAb14256 (antibody, V domains shown)
VH: QVQLQESGPGLVKPSETLSLTCTVSGGSISSHYWSWIRQPPGKGLEWIGYIYYSGSSNYNPSLKSRVTISVDTSKNQFSLKLNSVTAADTAVYYCARHYDILTGFDWFDPWGQGTLVTVSS
VL: QSVLTQPPSVSGAPGQRVTISCTGSSSNIGTHYDVHWYQQLPGTAPKLLIYGNSNRPSGVPDRFSGSKSGTSASLAITGLQAEDEADYYCQSFDNSLTAPYVFGTGTKVTVLG
B2: mAb14255 (antibody, V domains shown)
VH: QVQLQESGPGLVKPSETLSLTCTVSGGSISGYYWSWIRQPPGKGLDWIGYIYYRGNTNYNPSLKSRVTISVDTSNNQFSLKLSSVTAADTAVYYCARYGEGYGDASGYHFDYWGQGTLVTVSS
VL: QSALTQPASVSGSPGQSITISCTGTSSDVGSYNLVSWYQQHPGKAPKLMIYEDSKRPSGVANPFSGSKSGNTASLTISGLQAEDEADYYCSSYAGSSTWVFGGGTKLTVLG
B3: mAb14285 (antibody, V domains shown)
VH: QVQLVQSGAEVKKPGASVKVSCKASGYTFTGYFIHWVRQAPGQGLEWMGWISPISGGTNYAQKFQGRVTVTRDTSITTAYMELSRLTSDDTAVYHCAREGGTWKGDFDYWGQGTLVTVSS
VL: B2 VL with G30E, D53G, A61S, P63R
B4: mAb14284 (antibody, V domains shown)
VH: QITLKESGPTLVKPTQTLTLTCTFSGFSFSTSGVGVGWIRQPPGKTLEWLALIYWDDDKRYSPSLKSRLTITKDTSKNQVVLTMTNMDPVDTATYFCAHHGIPTIFGYWGQGALVTVSS
VL: QSALTQPASVSGSPGQSITISCTGTSSDLGVFNYVSWYQQHPGKAPKLMIYEVTNRPSGVSNRFSGSKSGNTASLTISGLQAEDEADYYCSSYTTSSTVFGGGTKLTVLG
B5: mAb14280 (antibody, V domains shown)
VH: QVQLVQSGAEVKKPGASVRVSCKASGYTFTGNYIHWVRQAPGQGLEWMAWINPNSGGKNYAQKFQGRVTLTRDTSVNTAYMELSRLRSDDTAMYYCARDVNYNILTGPGGLWGQGTLVTVSS
VL: QSALTQPPSASGSPGQSVTISCTGTSSDVGGYNFVSWYQQHPGKAPKLMIYEVSKRPSGVPDRFSGSKSGNTASLTVSGLQAEDEADYYCSSYAGSNNFVFGTGTKVTVLG
B6: mAb14258 (antibody, V domains shown)
VH: QLQLQESGPGLVKPSETLSLICTGSGDSISSSHYYWGWIRQPPGKGLEWIGSTYFSGSTYYNPSLKSRVSISVDTSKNQVSLKLISVTAADTAVYYCAREMGATLGDYWGPGTLVTVSS
VL: QSVLTQPPSASGTPGQRVTISCSGSSSNIGNNYVYWYQQFPGTTPRLLIYRNNERPSGVPDRFSGSKSGTSASLVISGLRSEDEADYYCAAWDDSLSAHYVFGTGTKVTVLG
B7: mAb14283 (antibody, V domains shown)
VH: QVQLQESGPGLVKPSGTLSLTCDVSGGSISSNNWWSWVRQRPGKGLQWIGEIYHNENTNYNPSLKSRVIMSIDKSKNQFSLKLTSVTAADTAVYYCARGDVLDWFDPWGQGTLVTVSS
VL: QSALTQPASVSGSPGQSTTISCTGTSSDVGGYNYVSWYQQYPGKAPKLMIYDVTNRPSGVSHRFSGSKSGNTASLTISGLQAEDEADYYCSSYTSSSTVIFGGGTKLTVLG
B8: mAb14286 (antibody, V domains shown)
VH: QVQLVQSGAEVKKPGASVKVSCKASGYTFTDYFIHWVRQAPGQGLEWMGWINPTSGGTNYAQKFRGRVTMTRDTSISTAYVELSRLRSDDTALYYCARDLPFYSDTKQFDYWGQGTLVTVSS
VL: B7 VL with S13Y, T18I, Y41H, Y51F, T54S, H62N, I77F, V99L, I100V
B9: mAb14257 (antibody, V domains shown)
VH: EVQLVESGGGLVQPGGSLRLSCAASGFTVSRSYMNWVRQAPGKGLEWVSVVFTGGTTKHTDSVKGRFTISRDNSMNTLYLQMNSLRPEDTAVYYCARVAIVETTGAFDIWGQGTMVTVSS
VL: QSVLTQPPSVSGAPGQRVTISCTGTSSNIGADFDVHWYQQFPGTAPKLLIYGHTNRPSGIPDRFSGSKSGTSASLAITGLQAEDEADYYCQSYDSSLSGSVVFGGGTKLTVLG
B10: mAb14312 (antibody, V domains shown)
VH: B9 VH with N35T, V51I, T56R, K58D, T60A, D72H, M75K, P87T, E102G, T103A
VL: B9 VL with T25S, D32G, F33D, F41L, H53N, T54S, I60V
B11: mAb14247 (antibody, V domains shown)
VH: QITLKESGPTLVKPTQTLTLTCTFSGFSLSTSAVGVGWIRQPPGKALEWLALIYWDDDKRYSPSLKSRLTITKDTSKNQLVLTMTNVDPVDTATYYCAHHTIQLIFDYWGQGTLVTVSS
VL: QSALTQPASVSGSPGQSITISCTATSSDVGNYNYVSWYQQHPGKAPKLMIYEVSNRPSGVSNRFSGSKSGNTASLTISGLQAEDEADYYCSSYTSSSTPLVFGGGTKLTVLG
B12: mAb14289 (antibody, V domains shown)
VH: QVQLVQSGPEVKKPGASVKVSCKASGYTFTSYAISWVRQAPGQGLEWMGWISAYNGNTNYAQKLQGRVTMTTDTFTSTAYMELRSLRSDDTAVYYCAVPADHITFDYWGQGTLVTVSS
VL: EIVLTQSPGTLSLSPGERATLSCRASQSVSSYLAWYQQKPGQAPRLLIHGASSRATGIPDRFSGSGSGTDFTLTISRLEPEDFAVYYCQQYGSSFLTFGGGTKVEIKR
B13: mAb14313 (antibody, V domains shown)
VH: EVQLVESGGGLVQPGRSLRLSCVASGFTFDDSAMHWVRQPPGKGLEWVSGISWNSGIIGYAESVKGRFIISRDNAKNSLFLHMRGLRPEDTAVYYCARDRLELSYYYYGMDVWGQGTTVTVSS
VL: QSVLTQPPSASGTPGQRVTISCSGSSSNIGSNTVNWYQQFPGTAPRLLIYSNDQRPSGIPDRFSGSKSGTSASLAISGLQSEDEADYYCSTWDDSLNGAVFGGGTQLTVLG
B14: mAb14292 (antibody, V domains shown)
VH: EVQLVESGGGLVQPGGSLRLSCVASGFAFSTYEMNWVRQAPGKGLEWVSYISSSGSTIYYADSVKGRLTISRDNVKNSLYLQMNSLRVEDTAIYYCARDAIRNNDILTDPATFDPWGQGTLVTVSS
VL: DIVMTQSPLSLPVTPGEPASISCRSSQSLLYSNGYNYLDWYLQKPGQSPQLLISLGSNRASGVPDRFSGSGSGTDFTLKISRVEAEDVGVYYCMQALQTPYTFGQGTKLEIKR
B15: mAb14294 (antibody, V domains shown)
VH: EVQLVESGGGLVQPGGSLRLSCAASGFTFSNHWMDWVRQAPGKGLVWVSRINSDGSSTDYADSVRGRFTMSRDNAKNTLYLQMSSLRAEDTAVYYCAREGMIFGAVIIPGWYFDLWGRGALVTVSS
VL: EIVLTQSPGTLSLSPGERATLSCRASQSVSSSQLAWYQQKPGQAPRLLIYGASSRATGIPDRFSGSGSGTDFTLTISRLEPEDFAVYYCQQYDSFGQGTKLEIKR
B16: mAb14282 (antibody, V domains shown)
VH: QVQLVQSGAEVKKPGASVKVSCKASGYIFTDHYMHWVRQAPGQGLEWMGWINPNSGATNYAQNFQGRVTMTRDTSIITVYMELSRLRSDDTAVYYCARDSSPYMIRYTMDVWGQGTTITVSS
VL: QSALTQPASVSGSPGQSITISCTGTSSDVGSYNLVSWYQQHPGKAPKLMIYELTKRPSGVSNRFSGSKSGNTASLTISGLQAEDEADYYCSSYRGSVTDVVFGGGTKLTVLG
B17: mAb14281 (antibody, V domains shown)
VH: QVQLVQSGADVKKPGASVKVSCKTSGYIFTGYYIHWVRQAPGQGLEWMGWINPNSGGTNSAQKFQGRVTMTRDTSISTVYMELSRLRSDDTAVYYCAKSNSFSVLDYNFDYWGQGTLVTVSS
VL: SSELTQDPAVSVALGQTVRITCQGDSLRSYYASWYQQKPGQAPVLVIYDKNNRPSGIPDRFSGSSSGNTASLTITGAQAEDEADYYCNSRDSSRNHLVVFGGGTKLTVLG

Legend:
[1] = biological target: SARS-CoV-2 RBD.mmh (Spike amino acids Arg319-Phe541 with C-terminal myc-myc-6-Histidine tag) (SARS-CoV-2, UniProt P0DTC2 319-541)
[2] = biological target: T1, SARS-COV-2 RBD-MMH (SARS-COV-2 RBD extracellular domain with C-terminal myc-myc-hexahistidine tag) (SARS-CoV-2)
[3] = biological target: T1, SARS-COV-2 RBD-MMH (SARS-COV-2 RBD …); experiment: SPR 37C, mAb captured, pH 7.4 vs pH 6.0

| Binder | IC50 [1] [nM] | koff [2] | t½ at pH 6.0 [2] [min] | t½ at pH 7.4 [2] [min] | t½ Ratio of pH 7.4 to pH 6.0 [3] |
| --- | --- | --- | --- | --- | --- |
| B1 | 0.48 | 0.00955 s⁻¹ | 1.2 | 1 | 0.8 |
| B2 | 0.157 | 0.00513 s⁻¹ | 2.3 | 2.3 | 1 |
| B3 | 1.7 | 0.0144 s⁻¹ | 0.8 | 0.4 | 0.5 |
| B4 | 0.367 | 0.000574 s⁻¹ | 20.1 | 18.5 | 0.9 |
| B5 | 1.74 | 0.019 s⁻¹ | 0.6 | 0.5 | 0.8 |
| B6 | 0.121 |  | 21.1 | 5.4 | 0.3 |
| B7 | 0.373 | 0.002 s⁻¹ | 5.8 | 6.9 | 1.2 |
| B8 | 0.641 | 0.00999 s⁻¹ | 1.2 | 1.2 | 1 |
| B9 | 0.365 | 0.00842 s⁻¹ | 1.4 | 1.5 | 1.1 |
| B10 | 0.134 | 0.00177 s⁻¹ | 6.5 | 13.5 | 2.1 |
| B11 | 0.446 | 0.00167 s⁻¹ | 6.9 | 7.3 | 1.1 |
| B12 | 0.378 | 0.00272 s⁻¹ | 4.2 | 6.2 | 1.5 |
| B13 | 16.4 | 0.00251 s⁻¹ and 0.0041 s⁻¹ | 2.8 | 4.6 | 1.6 |
| B14 | 0.254 | 0.00141 s⁻¹ and 0.00178 s⁻¹ | 6.5 | 8.2 | 1.3 |
| B15 | 0.244 | 0.000565 s⁻¹ | 20.5 | 12.6 | 0.6 |
| B16 | 0.502 | 0.00985 s⁻¹ | 1.2 | 0.9 | 0.8 |
| B17 | 0.397 | 0.00734 s⁻¹ | 1.6 | 1.8 | 1.1 |
